Test results from publication doi:10.1101/2024.05.17.594765, “Force-activated zyxin assemblies coordinate actin nucleation and crosslinking to orchestrate stress fiber repair” (bioRxiv, 2024).

B1: C-terminally Halo-tagged full-length zyxin (zyxin-Halo) (natural protein, human, UniProt Q15942 1-572, looked up)
chain: MAAPRPSPAISVSVSAPAFYAPQKKFGPVVAPKPKVNPFRPGDSEPPPAPGAQRAQMGRVGEIPPPPPEDFPLPPPPLAGDGDDAEGALGGAFPPPPPPIEESFPPAPLEEEIFPSPPPPPEEEGGPEAPIPPPPQPREKVSSIDLEIDSLSSLLDDMTKNDPFKARVSSGYVPPPVATPFSSKSSTKPAAGGTAPLPPWKSPSSSQPLPQVPAPAQSQTQFHVQPQPQPKPQVQLHVQSQTQPVSLANTQPRGPPASSPAPAPKFSPVTPKFTPVASKFSPGAPGGSGSQPNQKLGHPEALSAGTGSPQPPSFTYAQQREKPRVQEKQHPVPPPAQNQNQVRSPGAPGPLTLKEVEELEQLTQQLMQDMEHPQRQNVAVNELCGRCHQPLARAQPAVRALGQLFHIACFTCHQCAQQLQGQQFYSLEGAPYCEGCYTDTLEKCNTCGEPITDRMLRATGKAYHPHCFTCVVCARPLEGTSFIVDQANRPHCVPDYHKQYAPRCSVCSEPIMPEPGRDETVRVVALDKNFHMKCYKCEDCGKPLSIEADDNGCFPLDGHVLCRKCHTARAQT
modifications: Janelia Fluor 646 Halo-ligand conjugated to the Halo tag
notes: zyxin, human, full length; pCAG vector with a C-terminal 3C protease cleavage site and eGFP tag; eGFP removed with 3C protease on the resin; also called zyxin^WT; zyxin-Halo:JF646; source: HEK293F, transfected, purified (anti-GFP nanobody resin, 3C protease, Mono Q, SEC); not shown: Halo, C-terminal, kept; eGFP, C-terminal, cleaved
B2: C-terminally Halo-tagged VASP (VASP-Halo) (natural protein, human, UniProt P50552 1-380, looked up)
chain: MSETVICSSRATVMLYDDGNKRWLPAGTGPQAFSRVQIYHNPTANSFRVVGRKMQPDQQVVINCAIVRGVKYNQATPNFHQWRDARQVWGLNFGSKEDAAQFAAGMASALEALEGGGPPPPPALPTWSVPNGPSPEEVEQQKRQQPGPSEHIERRVSNAGGPPAPPAGGPPPPPGPPPPPGPPPPPGLPPSGVPAAAHGAGGGPPPAPPLPAAQGPGGGGAGAPGLAAAIAGAKLRKVSKQEEASGGPTAPKAESGRSGGGGLMEEMNAMLARRRKATQVGEKTPKDESANQEEPEARVPAQSESVRRPWEKNSTTLPRMKSSSSVTTSETQPCTPSSSDYSDLQRVKQELLEEVKKELQKVKEEIIEAFVQELRKRGSP
modifications: Janelia Fluor 549 Halo-ligand conjugated to the Halo tag
notes: VASP (vasodilator-stimulated phosphoprotein), human; also called VASP^WT; VASP-Halo:JF549; source: E. coli Rosetta2(DE3), purified (Ni-NTA, StrepTrap XT, 3C protease, SEC); not shown: Strep-Tag II, N-terminal, cleaved; Halo, C-terminal, kept; 6xHis-Tag, C-terminal, cleaved
B3: minimal zyxin construct with the N-terminal binding motifs (amino acids 1–160), Halo-tagged (domain or fragment, human, UniProt Q15942 1-160, looked up)
chain: MAAPRPSPAISVSVSAPAFYAPQKKFGPVVAPKPKVNPFRPGDSEPPPAPGAQRAQMGRVGEIPPPPPEDFPLPPPPLAGDGDDAEGALGGAFPPPPPPIEESFPPAPLEEEIFPSPPPPPEEEGGPEAPIPPPPQPREKVSSIDLEIDSLSSLLDDMTK
modifications: Janelia Fluor 646 Halo-ligand conjugated to the Halo tag
notes: zyxin, human, amino acids 1–160; also called zyxin^N-term; source: HEK293F, transfected, purified (anti-GFP nanobody resin, 3C protease, Mono Q, SEC); not shown: Halo, C-terminal, kept; eGFP, C-terminal, cleaved

Experiments:
Conditions in all cases: both partners purified
[1] = biological target: T1, C-terminally Halo-tagged ɑ-actinin-1 (ɑ-actinin-Halo) (human, UniProt P12814 1-892, Janelia Fluor 549 Halo-ligand (TIRF assays) or Alexa Fluor 488 Halo-ligand (droplet assays) conjugated to the Halo tag; unlabeled in the bundle assays); test: TIRF microscopy, force reconstitution assay with purified proteins; immobilised myosins, 30% ATTO 488-labeled F-actin, 25 nM (or 250 nM) zyxin-Halo:JF646 and 50 nM ɑ-actinin-Halo:JF549 in MBOS, +ATP (myosin forces); room temperature
T1 construct: ɑ-actinin-1, human; also called ɑ-actinin^WT; ɑ-actinin-Halo:JF549; source: E. coli Rosetta2(DE3), purified (Ni-NTA, TEV protease, HiTrap Q HP, SEC); not shown: 6xHis-Tag, N-terminal, cleaved; Halo, C-terminal, kept
T1 sequence (P12814 whole entry): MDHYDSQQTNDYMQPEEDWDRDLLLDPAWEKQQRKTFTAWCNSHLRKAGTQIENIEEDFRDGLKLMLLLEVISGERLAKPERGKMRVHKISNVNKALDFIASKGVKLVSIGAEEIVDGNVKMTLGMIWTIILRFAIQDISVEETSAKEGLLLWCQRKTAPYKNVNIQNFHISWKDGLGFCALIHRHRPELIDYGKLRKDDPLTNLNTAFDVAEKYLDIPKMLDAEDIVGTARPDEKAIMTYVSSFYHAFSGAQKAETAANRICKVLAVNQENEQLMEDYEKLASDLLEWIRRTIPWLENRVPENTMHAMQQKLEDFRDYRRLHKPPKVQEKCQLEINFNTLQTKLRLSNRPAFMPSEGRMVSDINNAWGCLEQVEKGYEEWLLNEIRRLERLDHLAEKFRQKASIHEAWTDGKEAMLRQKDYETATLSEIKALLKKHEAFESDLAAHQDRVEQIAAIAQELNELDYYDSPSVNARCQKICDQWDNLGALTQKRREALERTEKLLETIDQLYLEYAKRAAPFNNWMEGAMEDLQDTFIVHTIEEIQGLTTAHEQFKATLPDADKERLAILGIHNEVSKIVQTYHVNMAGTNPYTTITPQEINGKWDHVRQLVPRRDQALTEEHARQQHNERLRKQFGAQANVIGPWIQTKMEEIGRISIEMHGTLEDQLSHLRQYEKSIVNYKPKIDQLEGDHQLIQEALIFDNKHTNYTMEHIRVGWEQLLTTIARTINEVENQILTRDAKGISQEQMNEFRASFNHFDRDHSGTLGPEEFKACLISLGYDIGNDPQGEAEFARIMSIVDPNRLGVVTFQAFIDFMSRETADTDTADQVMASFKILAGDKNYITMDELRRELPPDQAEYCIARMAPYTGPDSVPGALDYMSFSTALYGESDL

[2] = biological target: B1; test: droplet co-partitioning (iSIM fluorescence microscopy); zyxin construct, VASP and ɑ-actinin mixed together in MBOS with 3% PEG 8K, room temperature; small clusters also without PEG 8K at native cellular concentrations
[3] = biological target: B2; test: as above

## B1
[1]
  binding result: binds

## B2
[2]
  binding result: binds

## B3
[3]
  binding result: binds
